Laboratory results as given in patent US20250092108A1 (Xencor, published 2025).
Substitutions are numbered along the chain they refer to.

Target: T1, IL-2 receptors (high-affinity IL-2Rαβγ or intermediate-affinity IL-2Rβγ) on PBMC lymphocytes (UniProt P01589 22-272; P14784 27-551; P31785 23-369, limits assumed)
T1 sequence (looked up) 1: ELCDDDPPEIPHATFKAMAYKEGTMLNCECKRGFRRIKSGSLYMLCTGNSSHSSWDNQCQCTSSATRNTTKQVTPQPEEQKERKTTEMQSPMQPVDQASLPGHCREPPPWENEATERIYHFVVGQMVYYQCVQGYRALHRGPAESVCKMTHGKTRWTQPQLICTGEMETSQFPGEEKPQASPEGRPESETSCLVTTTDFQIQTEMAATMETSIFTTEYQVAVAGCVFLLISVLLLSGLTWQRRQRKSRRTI
T1 sequence (looked up) 2: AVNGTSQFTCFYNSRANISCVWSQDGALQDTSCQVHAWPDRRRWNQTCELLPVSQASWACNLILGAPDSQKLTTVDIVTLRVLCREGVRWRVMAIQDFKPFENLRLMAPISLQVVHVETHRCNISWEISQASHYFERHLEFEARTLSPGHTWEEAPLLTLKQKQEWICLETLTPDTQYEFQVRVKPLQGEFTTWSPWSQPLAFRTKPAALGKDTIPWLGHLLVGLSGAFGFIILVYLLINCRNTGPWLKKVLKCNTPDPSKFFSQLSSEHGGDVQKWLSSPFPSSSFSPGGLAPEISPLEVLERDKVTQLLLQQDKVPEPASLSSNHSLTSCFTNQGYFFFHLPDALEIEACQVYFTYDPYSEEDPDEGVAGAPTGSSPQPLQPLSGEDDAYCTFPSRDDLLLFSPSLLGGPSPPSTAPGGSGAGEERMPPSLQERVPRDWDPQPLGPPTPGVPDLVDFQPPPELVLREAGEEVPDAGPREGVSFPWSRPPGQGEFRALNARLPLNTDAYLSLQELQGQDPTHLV
T1 sequence (looked up) 3: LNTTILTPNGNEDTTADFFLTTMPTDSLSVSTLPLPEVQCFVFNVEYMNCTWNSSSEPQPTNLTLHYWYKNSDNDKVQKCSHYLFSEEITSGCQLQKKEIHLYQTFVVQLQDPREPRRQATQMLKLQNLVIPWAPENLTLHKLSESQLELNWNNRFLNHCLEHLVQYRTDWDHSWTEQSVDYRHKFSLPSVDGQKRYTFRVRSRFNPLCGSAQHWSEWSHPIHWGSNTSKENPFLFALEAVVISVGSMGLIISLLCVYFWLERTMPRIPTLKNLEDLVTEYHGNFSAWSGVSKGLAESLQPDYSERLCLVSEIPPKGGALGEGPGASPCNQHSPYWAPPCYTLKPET
Assay: cell-based or functional assay

B1: XENP26105 (Fc fusion)
chain 1: EPKSSDKTHTCPPCPAPPVAGPSVFLFPPKPKDTLMISRTPEVTCVVVDVKHEDPEVKFNWYVDGVEVHNAKTKPREEEYNSTYRVVSVLTVLHQDWLNGKEYKCKVSNKALPAPIEKTISKAKGQPREPQVYTLPPSREEMTKNQVSLTCDVSGFYPSDIAVEWESDGQPENNYKTTPPVLDSDGSFFLYSKLTVDKSRWEQGDVFSCSVMHEALHNHYTQKSLSLSPGK
chain 2: APASSSTKKTQLQLEHLLLNLQMILNGINNYKNPKLRRMLTFKFYMPKKATELKHLQCLEEELKPLEEVLNLAQSKNFHLRPRDLISNINVIVLELKGSETTFMCEYADETATIVEFLNRWITFSQSIISTLTEPKSSDKTHTCPPCPAPPVAGPSVFLFPPKPKDTLMISRTPEVTCVVVDVKHEDPEVKFNWYVDGVEVHNAKTKPREEQYNSTYRVVSVLTVLHQDWLNGKEYKCKVSNKALPAPIEKTISKAKGQPREPQVYTLPPSREQMTKNQVKLTCLVKGFYPSDIAVEWESNGQPENNYKTTPPVLDSDGSFFLYSKLTVDKSRWQQGNVFSCSVMHEALHNHYTQKSLSLSPGK
EC50, induction of STAT5 phosphorylation (in vitro potency): 1 nM

B2: XENP26109 (Fc fusion)
chain 1: B1 chain 1
chain 2: B1 chain 2 with R37T, N71K
EC50, induction of STAT5 phosphorylation (in vitro potency): 5 nM
